According to patent publication US20230022970A1, “USE OF GLIAL CELL LINE-DERIVED NEUROTROPHIC FACTOR (GDNF) FOR THE TREATMENT OF ENTERIC NEUROPATHIES” (TRANSFERT PLUS, société en commandite, priority 2019, published 2023):
Where no end group is shown, it is not given here.

B1: Noggin: Noggin homodimer (46 kDa), Sigma Cat. # SRP4675, tested neurotrophic molecule (protein, UniProt Q13253 28-232, looked up)
Noggin: QHYLHIRPAPSDNLPLVDLIEHPDPIFDPKEKDLNETLLRSLLGGHYDPGFMATSPPEDRPGGGGGAAGGAEDLAELDQLLRQRPSGAMPSEIKGLEFSEGLAQGKKQRLSKKLRRKLQMWLWSQTFCPVLYAWNDLGSRFWPRYVKVGSCFSKRSCSVPEGMVCKPSKSVHLTVLRWRCQRRGGQRCGWIPIQYPIISECKCSC
B2: HisGDNF: 6×His-tagged version of GDNF used for enema treatments (protein, UniProt P39905 78-211, looked up)
Glial cell line-derived …: SPDKQMAVLPRRERNRQAAAANPENSRGKGRRGQRGKNRGCVLTAIHLNVTDLGLGYETKEELIFRYCSGSCDAAETTYDKILKNLSRNRRLVSDKVGQACCRPIAFDDDLSFLDDNLVYHILRKHSAKRCGCI
modifications: 6xHis tag
notes: 6×His-tagged version of GDNF used for enema treatments

What was measured:
[1] = test system: Hol^Tg/Tg mice (model for Trisomy 21 [Collagen VI]-associated HSCR); assay: GDNF enema treatment, survival of Hol^Tg/Tg pups; assay type: in vivo, mouse; details: 10 μg in 10 μl PBS enema once daily P4-P8, Hol^Tg/Tg mice
Procedure: (§1) For all enema treatments, mutant mouse pups were identified at P3 via pigmentation-based genotyping. Unless specified otherwise (see FIG. 1), 10 μl enemas consisting of a 1 μg/μl solution of recombinant human mature GDNF (Peprotech cat. #450-10) diluted in PBS were administered daily between P4 to P8. […] Other tested molecules (1 μg/μl solution in 10 μl enemas) included the serotonin receptor (5-HT4R) agonist RS67506 (R&D Systems, Cat. #0990), Noggin (Sigma, Cat. # SRP4675), endothelin-3 (Sigma, Cat. # E9137), serotonin (Sigma, Cat. # H9523), and L-ascorbic acid (Sigma, Cat. # A4403). Enemas were administered using a 24-gauge gavage needle (Fine Science Tools, Canada) attached to a micropipette. The head of the gavage needle was introduced in the rectum just beyond the anus (pre-lubricated with Vaseline™), and enemas were injected over the course of a few seconds. Pups were then placed back with their mother, and either sacrificed at P20 for tissue analysis or checked daily to track survival.
It was first tested if GDNF enemas in young mice could enhance enteric neuron numbers and restore function in distal aganglionic bowel using three mouse models of short-segment HSCR. Selected lines were Holstein (Hol^Tg/Tg; a model for Trisomy 21 [Collagen VI]-associated HSCR) (39), TashT (TashT^Tg/Tg; a model for male-biased HSCR) (40), and Piebald-lethal (Ednrb^S-l/s-l; a model for EDNRB mutation-associated HSCR) (41). The enema volume necessary to fill whole colon, concentration of GDNF homodimer (30 kDa), treatment time window, as well as duration and frequency of therapy were first determined with Hol^Tg/Tg pups (FIGS. 1A-D). […] Remarkably, the selected treatment (i.e. daily administration of 10 μg GDNF in PBS as 10 μl enemas for 5 consecutive days between postnatal day [P]4 to P8) prevented death by megacolon in about half of Hol^Tg/Tg mice at P28, the maximum age of survival for control Hol^Tg/Tg mice (FIG. 2A). Most animals surviving to P28 reached adult age after GDNF treatment and mice evaluated could reproduce (two tested breeding pairs were fertile). […]

[2] = test system: Hol^Tg/Tg mice; assay: Time-course immunofluorescence of HisGDNF distribution and RET expression in distal colon; assay type: in vivo, mouse
Procedure: as §1
Tissue labelling and imaging. […] EdU was detected using the Invitrogen Click-iT EdU Imaging Kit (ThermoFisher Scientific, Cat. # C10337) in accordance with the manufacturer's instructions. […]

Molecule	life expectancy [1]	distribution in colon submucosa, smooth muscles and subsets of enteric neurons ([2]; distal colon 2 h after treatment on P4, P6 and P8, Hol^Tg/Tg)	levels of the main GDNF receptor RET ([2]; distal colon, P4-P8 treatment, Hol^Tg/Tg)
endothelin-3 (CTCFTYKDKECVYYCHLDIIW; ends and bridges not checked; cysteine pairing not given here; UniProt P14138 97-117, looked up) [endothelin-3 monomer (26 kDa), Sigma Cat. # E9137, tested neurotrophic molecule]	failed to increase life expectancy	–	–
COc1cc(N)c(Cl)cc1C(=O)CCC1CCN(CCNS(C)(=O)=O)CC1 [RS67506]	failed to increase life expectancy	–	–
B1	failed to increase life expectancy	–	–
B2	–	accumulated over time	increased
